Reference: the nanobody polyreactivity screen of Harvey et al. (2022)

Assay: yeast display, Sf9 membrane polyspecificity reagent, FACS + sequencing; frameworks hold sequencing errors
How it was run: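 Nanobodies from a synthetic yeast display library (Saccharomyces cerevisiae BJ5465), induced 36–48 hours with galactose, were stained 1 hour at 4 °C with 10% biotinylated, detergent-solubilized Sf9 membrane reagent, enriched on streptavidin microbeads, then FACS-sorted. Anti-HA (expression) and streptavidin (reagent binding) fluorescence set low and high (top ~1%) gates. Polyreactivity labels come from the gate of origin. Genes were colony-PCR amplified, MiSeq 2 × 250 sequenced and filtered by CDR length.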

Row | Sequence | polyreactivity (PSR sort gate)
1 | QVQLVESGGGLVQAGGSLRLSCAASGSIFVPYTMGWYTQAPGKERELVASISYSGGTTYYADSVKGRFTISRDNAKNTVYLQMNSLKPEDTAVYYCAADWDESFSYRRYRHYDYWGQGTQVTVSS | low polyreactivity
2 | QVQLVESGGGLVQAGGSLRLSCAASGSIFVQYAMGWYRQAPGKERELVATISDDGSTNYADSVKGRFTISRDNAKNTVYLQMNSLKPEDTAVYYCAADTYYYVGADDYWGQGTQVTVSS | low polyreactivity
3 | QVQLVESGGGLVQAGGSLRLSCAASGSIFVRNAMGWCRQAPGKERELVAAITARGGSTYYADSVKGRFTISRDNAKNTVYLQMNSLKPEDTAVYYCARSYYYRGWAQWRYDYWGQGTQVTVSS | high polyreactivity
4 | QVQLVESGGGLVQAGGSLRLSCAASGSIFVRNAMGWYRPAPGKERELVADITSRGSSTYYADSVKGRFTISRDNAKNTVYLQMNSLKPEDTAVYYCNAVRYYVRTYIYRHDRGMDYWGQGTQVTVSS | low polyreactivity
5 | QVQLVESGGGLVQAGGSLRLSCAASGSIFVRNAMGWYRQAPGKEREFVAIRFSGATTYYADSVKGRFTISRDNAKNTVYLQMNSLKPEDTAVYYCAAVARTYGRTSYYWGQGTQVTVSS | high polyreactivity
6 | QVQLVESGGGLVQAGGSLRLSCAASGSIFVRNAMGWYRQAPGKERELVAAITYSGSRTYYADSVKGRFTISRDNAKNTVYLQMNSLKPEDTEVYYCAKVRVLVDKWSTFYEYYYWGQGTQVTVSS | low polyreactivity
7 | QVQLVESGGGLVQAGGSLRLSCAASGSIFVRNVMGWYRQAPGKERELVAGISWNGGSTFYADSVKGRFTISRDNAKNTVYLQMNSLKPEDTAVDYCATPYGRHGWFYLYDYWGQGTQVTVSS | low polyreactivity
8 | QVQLVESGGGLVQAGGSLRLSCAASGSIFVRYATMGWYRQAPGKERELVAAISRSGGSTYYADSVKGRFTISRDNAKNTVYLQMNSLKPEDTAVYYCANVSPSLRASGYDYWGQGTQVTVSS | high polyreactivity
9 | QVQLVESGGGLVQAGGSLRLSCAASGSIFVRYTIVWYRQSTWKEMELVAAITSGGRTYYADSVKGRFTISRDNAKNTVYLQMNSLKPEDTAVYYSADVPHIRRYGFYYWGQGTQVTVSS | high polyreactivity
10 | QVQLVESGGGLVQAGGSLRLSCAASGSIFVRYTMGWYRQAPGKERELVAAISWGGGSTYYADSVKGRFTISRDNAKNTVYLQMNSLKPEDTAVYYCNKRYIQLYDYWGQGTQVTVSS | low polyreactivity
11 | QVQLVESGGGLVQAGGSLRLSCAASGSIFVRYTMGWYRQAPGKERELVAGISSRGGSTYYADSVKGRFTISRDNAKNTVYLQMNSLKPEDTAVYYCAATYFRRVVPGYNYWGQGTQVTVSS | high polyreactivity
12 | QVQLVESGGGLVQAGGSLRLSCAASGSIFVSNAMGWYRQAPGKERELVAAITARDFSTYYADSVKGRFTISRDNAKNTVYLEMNSQKPEDTAVYYCAGNSSTYPSDDSYDYWGQGTQVTVSS | low polyreactivity
13 | QVQLVESGGGLVQAGGSLRLSCAASGSIFVSNAMGWYRQAPGKERELVAAITARDVSTYYADSVKGRFTISRDNAKNTVYLQMISLKPEDTAVYYCAGNSSTYPSDDSYVYWGQGTQVTVSS | low polyreactivity
14 | QVQLVESGGGLVQAGGSLRLSCAASGSIFVSNAMGWYRQAPGKERELVASISQDGGSTYYADSVKGRFTISRDNAKNTVYLQMNSLKPEDTADYYCAAKAEYYYYNGGTTYLVRYYYWGQGTQVTVSS | low polyreactivity
15 | QVQLVESGGGLVQAGGSLRLSCAASGSIFVSNAMGWYRQAPGTERELVAAISGGGSTYYADSVKGRFTISRDNAKNTVFLQMNSLKPEDTAVYYCAKKGGHRTYGYDSWGQGTQVTVSS | low polyreactivity
16 | QVQLVESGGGLVQAGGSLRLSCAASGSIFVSYAMGWYRQAPGKEREFVAAITRSGGSTYYADSVKGRFTISRDNAKNTVYLQMNSLKPEDTAVYYCAARSYLGAYRRYYWGQGTQVTVSS | high polyreactivity
17 | QVQLVESGGGLVQAGGSLRLSCAASGSIFVSYAMGWYSQAPGKERELVAVISYSGVSTYYADSVKGRFTISRDNAKNTVYLQINSLKPEDTAVYYCATRQYGTRHILKYNYWGQGTQVTVSS | low polyreactivity
18 | QVQLVESGGGLVQAGGSLRLSCAASGSIFVTYAMGWYRQAPGKERELVASITGRGGSTYYADSVKGRFTISRDNAKNTVYLQMNSLKPEDTAVYYCAARVASRHGWHNYWGQGTQVSVSS | high polyreactivity
19 | QVQLVESGGGLVQAGGSLRLSCAASGSIFVVNGMGWYRQAPGKERELVAAITGDGTTYYADSVKGRFTISRDNAKNTVYLQMNSLKPEDSAVYYCAALFTPALSEYDYWGQGTQVTVSS | high polyreactivity
20 | QVQLVESGGGLVQAGGSLRLSCAASGSIFVVYAMGWYRQAPGKERELVAAISWGIGSTYYADSVKGRFTISRDNAKYTVYLQMNSLKPEDTAVYYCAAETDIVLYDYWGQGTQVTVSS | low polyreactivity

Row | Sequence | polyreactivity (PSR sort gate)
21 | QVQLVESGGGLVQAGGSLRLSCAASGSIFVVYAMGWYRQAPGKERELVAGISDGDNTNYADSVKGRVTISRDNAKNTVYLQMNSLKPEDTAVYYCNADGTSRNLEGFDYWGQGTQVTVSS | low polyreactivity
22 | QVQLVESGGGLVQAGGSLRLSCAASGSIFVVYAMGWYRQAPGKERELVAGISGRDGSTYYADSVKGRFTISRDNGKNTVYLQMNSLKPEDTAVYYSARVYWGQGTQVTVSS | low polyreactivity
23 | QVQLVESGGGLVQAGGSLRLSCAASGSIFVVYSMGWYRQAPGKERELVAGISYGDNTNYADSVKGRFTISRDNAKNTVYLQMNSLKPVDTAVYYCNADGTSRNLEGFDYWGQGTQVTVSS | low polyreactivity
24 | QVQLVESGGGLVQAGGSLRLSCAASGSIFVYKAMGWYRQAPGKERELVAGITFIGGSTYYADSVKGRFTISRDNAKNTVYLQMNCLKPEDTAVYYCNADVAPGIFYGYDSWGQGTQVTVSS | low polyreactivity
25 | QVQLVESGGGLVQAGGSLRLSCAASGSIFVYNAMGRYRQAPGKEREYVAAITYSGGSTYYADSVKGRFTISRDNAKNTVDLQMNSLKPEDTAVYYCAADYFQHVPKYGYWGQGTQVNVSS | low polyreactivity
26 | QVQLVESGGGLVQAGGSLRLSCAASGSIFVYNAMGWYRPAPGKERELVAGITLIGGSTYYADSVKGRFTISRDNAKNTVYLQMNSLKPEDTAVYYCAVLVVGSTTQDEPYFSGVEHDYWGQGTQVTVSS | low polyreactivity
27 | QVQLVESGGGLVQAGGSLRLSCAASGSIFVYNAMGWYRQAPGKERELVAAIDTVGSTNYADSVKGRFTISRDNAKNTVYLQMNSVKPVDPAVYYCAVVTPYWSFYEQVIPSNYWGQGTQVTVSS | low polyreactivity
28 | QVQLVESGGGLVQAGGSLRLSCAASGSIFVYNAMGWYRQAPGKERELVAAISQRGGSTYYADSVKGRFTISRDNAKNTVYLQMNSLKPEDTAVYYCAAAPGDSGDDYWGQGTQVTVSS | low polyreactivity
29 | QVQLVESGGGLVQAGGSLRLSCAASGSIFVYNAMGWYRQAPGKERELVAAISQRGGSTYYADSVKGRFTISRDYSKNTVYLQMNSLKPEDTAVYYCAAGPGDSGDDYWGQGTQVTVSS | low polyreactivity
30 | QVQLVESGGGLVQAGGSLRLSCAASGSIFVYNAMGWYRQAPGKERELVAGITFIGGSTYYADSVKGRFTISRDTAKNTVYLPMNSLKPEDTAVYYRNADGAPGIFYGYDSWGQGTQVTVSS | low polyreactivity
31 | QVQLVESGGGLVQAGGSLRLSCAASGSIFVYNAMGWYRQAPGKEREWVAGITFIGGSTYYADSVKGRFTISRDNEKNTVYLQMNSLKPEDTAFYYCATDLPGGRYYGPYDYWGQGTQVTVSS | low polyreactivity
32 | QVQLVESGGGLVQAGGSLRLSCAASGSIFVYNAMGWYRQAPGNERELVAGINYSGGSTYYADSVKGRFTISRDNATNTVYLQMNSLKPEDTAVYSCARRRPYQWPYNYWGQGTQVTVSS | high polyreactivity
33 | QVQLVESGGGLVQAGGSLRLSCAASGSIFVYNDMGWYRPAPGKERELVAGIDWSGDRTYADSVKGRFTISRDNAKNTVYLQMNSLKPEDTAVYYCNADEWRWDEIIPYAVDYWGQGTQVTVSS | low polyreactivity
34 | QVQLVESGGGLVQAGGSLRLSCAASGSIFVYYALGWYRQAPGKERELVAAISSSGDTTYYADSVKGRFTISRDNAKNTVYLQMNSLKPEDTAVYYCNTRNDRASQRWVSREMDYWGQGTQVTVSS | high polyreactivity
35 | QVQLVESGGGLVQAGGSLRLSCAASGSIFVYYAMGWYRQAPGKERELVARITRGGRTYYADSVKGRFTISRDNAKNTVYLQMNSLKPEDTAVYYCAADYRVQLRKEYDYWGQGTQVTVSS | high polyreactivity
36 | QVQLVESGGGLVQAGGSLRLSCAASGSIFVYYAMGWYRQAPGKERELVATINYNDGSTYYADSVKGRFTISRDNAKNTVYLQMNSLKPEDTAVYYCAADIVWSPESHPWYYVHYYYWGQGTQVTVSS | low polyreactivity
37 | QVQLVESGGGLVQAGGSLRLSCAASGSIFVYYTMGWYRQAPGKERELVAAISISGTSTYYADSVKGRFTISRDNAKNTVYLQMNSLKPEDTAVYYCAADTYYGEDYWGQGTQVTVSS | low polyreactivity
38 | QVQLVESGGGLVQAGGSLRLSCAASGSIFWANAMGWYRQAPGNERELVAAISRSGTSTFYADSVKGRFTISRDNAKNTVYLQMNSLKPEDTAVYYCNAVGSGYRSWYVYWGQGTQVTVSS | high polyreactivity
39 | QVQLVESGGGLVQAGGSLRLSCAASGSIFWAYAMGWYRQAPGKERELVAAISRGGTTTYADSVKGRFTISRDNAKNTVYLQMNSLKPEDTAVYYCARRAVYSKRRYDYWGQGTQVTVSS | low polyreactivity
40 | QVQLVESGGGLVQAGGSLRLSCAASGSIFWDYAMGWYRQSPGKERELVAAISGSGTSTYYADSVKGRFTISRDNAKNTVYLQMNSLKPEDTAVYYCAARIWTGRGRKLGNGYDYWGQGTQVTVSS | low polyreactivity
